# Results reported in the supplement of paper PMC7877785.
# ± gives the uncertainty stated by the source.
# Test: self-splicing fitness, log relative to wild type (ln ratio); higher = more splicing; Tetrahymena group I intron in knt gene, E. coli kanamycin selection, DiMSum; sequences stand for … in CUCUCU…GGAGGGAAAAGUUAUCAGGCAUGCACCUGGUAGCUAGUCUUUAAACCAAUAGAUUGCAUCGGUUUAAAAGGCAAGACCGUCAAAUUGCGGGAAAGGGGUCAACAGCCGUUCAGUACCAAGUCUCAGGGGAAACUUUGAGAUGGCCUUGCAAAGGGUAUGGUAAUAAGCUGACGGACAUGGUCCUAACCACGCAGCCAAGUCCUAAGUCAACAGAUCUUCUGUUGAUAUGGAUGCAGUUCACAGACUAAAUGUCGGUCGGGGAAGAUGUAUUCUUCUCAUAAGAUAUAGUCGGACCUCUCCUUAAUGGGAGCUAGCGGAUGAAGUGAUGCAACACUGGAGCCGCUGGGAACUAAUUUGUAUGCGAAAGUAUAUUGAUUAGUUUUGGAGUACUCGUGGUCG
# Outline: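 Six replicate transformations of E. coli BL21(DE3) with a pET-22b(+) library were grown overnight at 37°C or 30°C. The library randomised all eight P1ex-region intron nucleotides, the intron lying in the knt kanamycin-resistance gene, and plates were LB agar with or without 25 μg/mL kanamycin plus 100 μg/mL carbenicillin, 50 μM IPTG and 0.2% rhamnose. Pooled colonies were amplicon-sequenced on an Illumina HiSeq 2500, and fitness is the DiMSum error-weighted combination of wild-type-normalised replicate fold changes, kanamycin versus none.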
Sequence,self-splicing fitness (ln) (30 °C),self-splicing fitness (ln) (37 °C)
GGCCAGCAAUAUUACGGAGU,-0.585 ± 0.063,-0.166 ± 0.084
GGCCAGCAAUAUUACGGAUG,-0.5 ± 0.08,-0.503 ± 0.077
GGCCAGCAAUAUUACGGCAG,-0.833 ± 0.058,-0.191 ± 0.1
GGCCAGCAAUAUUACGGCGU,-1.59 ± 0.098,-0.69 ± 0.12
GGCCAGCAAUAUUACGGUAU,-0.512 ± 0.06,0.47 ± 0.084
GGCCAGCAAUAUUACGGUUG,-0.224 ± 0.062,-0.166 ± 0.075
GGCCAGCAAUAUUACGUAAU,-0.304 ± 0.098,-0.62 ± 0.098
GGCCAGCAAUAUUACGUGCA,-0.734 ± 0.078,-0.196 ± 0.074
GGCCAGCAAUAUUACGUGGA,-4.07 ± 0.25,-2.49 ± 0.17
GGCCAGCAAUAUUACGUGGC,-0.533 ± 0.25,-1.69 ± 0.35
GGCCAGCAAUAUUACGUUAU,-2.4 ± 0.13,-0.702 ± 0.11
GGCGAGCAAUAUUACGAACG,-1.57 ± 0.078,0.152 ± 0.091
GGCGAGCAAUAUUACGAAGU,-2.81 ± 0.44,-1.21 ± 0.19
GGCGAGCAAUAUUACGAUGG,-2.32 ± 0.24,–
GGCGAGCAAUAUUACGAUUA,-2.12 ± 0.22,-1.44 ± 0.17
GGCGAGCAAUAUUACGCUAA,-2.83 ± 0.32,-1.02 ± 0.22
GGCGAGCAAUAUUACGCUGC,-2.58 ± 0.39,-0.462 ± 0.37
GGCGAGCAAUAUUACGCUUC,-3.8 ± 0.34,-2.53 ± 0.49
GGCGAGCAAUAUUACGGAGU,-3.06 ± 0.4,-1.68 ± 0.4
GGCGAGCAAUAUUACGGAUG,-3.22 ± 0.19,-1.7 ± 0.15
GGCGAGCAAUAUUACGGCCU,-2.45 ± 0.23,–
GGCGAGCAAUAUUACGGUCC,–,-2.99 ± 0.43
GGCGAGCAAUAUUACGGUCG,-1.13 ± 0.13,-0.98 ± 0.16
GGCGAGCAAUAUUACGUAAG,-3.88 ± 0.38,-1.39 ± 0.27
GGCGAGCAAUAUUACGUACC,-1.44 ± 0.25,–
GGCGAGCAAUAUUACGUAUG,-1.78 ± 0.14,-1.01 ± 0.14
GGCGAGCAAUAUUACGUCAC,-3.01 ± 0.23,–

Sequence,self-splicing fitness (ln) (30 °C),self-splicing fitness (ln) (37 °C)
GGCGAGCAAUAUUACGUGGU,-4.31 ± 0.27,-1.77 ± 0.16
GGCUAGCAAUAUUACGAAAG,-2.44 ± 0.26,-2.4 ± 0.44
GGCUAGCAAUAUUACGACAC,-0.572 ± 0.11,0.6 ± 0.16
GGCUAGCAAUAUUACGACGC,-0.655 ± 0.41,0.803 ± 0.43
GGCUAGCAAUAUUACGCACU,-0.665 ± 0.1,-0.592 ± 0.1
GGCUAGCAAUAUUACGCCAG,-1.55 ± 0.23,–
GGCUAGCAAUAUUACGCCCG,-4.06 ± 0.47,-3.68 ± 0.26
GGCUAGCAAUAUUACGCUGU,-3.44 ± 0.29,-1.19 ± 0.21
GGCUAGCAAUAUUACGGCAG,-1.12 ± 0.23,-0.728 ± 0.38
GGCUAGCAAUAUUACGGCGU,-0.171 ± 0.086,-0.201 ± 0.094
GGCUAGCAAUAUUACGGCUC,-3.26 ± 0.3,–
GGCUAGCAAUAUUACGGGUG,-0.804 ± 0.094,-0.739 ± 0.1
GGCUAGCAAUAUUACGGUAG,-2.31 ± 0.27,-0.259 ± 0.23
GGCUAGCAAUAUUACGGUCG,0.0358 ± 0.11,-0.669 ± 0.12
GGCUAGCAAUAUUACGUACA,-1.07 ± 0.12,-0.185 ± 0.11
GGCUAGCAAUAUUACGUCAU,-1.5 ± 0.082,-0.278 ± 0.086
GGCUAGCAAUAUUACGUCCC,–,-0.484 ± 0.43
GGCUAGCAAUAUUACGUCGA,-1.19 ± 0.071,-0.818 ± 0.093
GGCUAGCAAUAUUACGUGAC,-1.84 ± 0.14,-1.02 ± 0.16
GGCUAGCAAUAUUACGUUUU,-0.476 ± 0.084,-0.0101 ± 0.093
GGGAAGCAAUAUUACGAGAU,-2.81 ± 0.25,-2.8 ± 0.38
GGGAAGCAAUAUUACGAGGA,-3.34 ± 0.48,-2.24 ± 0.29
GGGAAGCAAUAUUACGAUCU,-0.627 ± 0.27,-0.134 ± 0.24
GGGAAGCAAUAUUACGCACU,-1.78 ± 0.21,-1.94 ± 0.2
GGGAAGCAAUAUUACGCCAU,-3.31 ± 0.25,-0.83 ± 0.25
GGGAAGCAAUAUUACGCCUA,-0.134 ± 0.2,-0.887 ± 0.28
GGGAAGCAAUAUUACGCGGG,-1.49 ± 0.23,-1.8 ± 0.25

Sequence,self-splicing fitness (ln) (30 °C),self-splicing fitness (ln) (37 °C)
GGGAAGCAAUAUUACGCUCG,-0.703 ± 0.27,-1.03 ± 0.18
GGGAAGCAAUAUUACGGAAU,–,-1.67 ± 0.42
GGGAAGCAAUAUUACGGGAC,-2.61 ± 0.21,-3.45 ± 0.21
GGGAAGCAAUAUUACGUUUA,-2.23 ± 0.22,-1.51 ± 0.16
GGGCAGCAAUAUUACGAAGA,-2.31 ± 0.21,-0.958 ± 0.16
GGGCAGCAAUAUUACGACAG,-2.72 ± 0.39,-0.948 ± 0.32
GGGCAGCAAUAUUACGACGG,-3.78 ± 0.35,-1.4 ± 0.27
GGGCAGCAAUAUUACGAUGG,-3.22 ± 0.35,–
GGGCAGCAAUAUUACGCAUU,-0.0216 ± 0.078,-0.129 ± 0.11
GGGCAGCAAUAUUACGCGGC,–,-1.26 ± 0.38
GGGCAGCAAUAUUACGCUCG,-0.812 ± 0.11,-1.24 ± 0.14
GGGCAGCAAUAUUACGGACU,-0.562 ± 0.07,-0.255 ± 0.091
GGGCAGCAAUAUUACGGCAU,0.216 ± 0.12,-0.928 ± 0.12
GGGCAGCAAUAUUACGGGGC,-0.887 ± 0.22,-1.9 ± 0.42
GGGCAGCAAUAUUACGGGUA,–,-2.55 ± 0.35
GGGCAGCAAUAUUACGUAAA,-0.819 ± 0.09,-0.375 ± 0.11
GGGCAGCAAUAUUACGUAGA,-1.53 ± 0.063,-0.244 ± 0.083
GGGCAGCAAUAUUACGUGCC,–,-0.519 ± 0.48
GGGCAGCAAUAUUACGUGUG,-2.34 ± 0.14,-1.26 ± 0.16
GGGCAGCAAUAUUACGUUGA,-1.3 ± 0.081,-0.64 ± 0.098
GGGCAGCAAUAUUACGUUUG,-1.17 ± 0.098,-0.133 ± 0.11
GGGGAGCAAUAUUACGAAAC,-3.15 ± 0.42,-0.654 ± 0.3
GGGGAGCAAUAUUACGAACU,-2.75 ± 0.31,-1.76 ± 0.27
GGGGAGCAAUAUUACGAUCG,-1.44 ± 0.2,-0.888 ± 0.3
GGGGAGCAAUAUUACGAUGA,-2.02 ± 0.3,-2.57 ± 0.37
